Data as given in publication PMC11832770, “NADH-bound AIF activates the mitochondrial CHCHD4/MIA40 chaperone by a substrate-mimicry mechanism” (The EMBO Journal, 2025).

B1: Atto488-CHCHD4 (natural protein, human, UniProt Q8N4Q1 1-142, looked up)
chain: MSYCRQEGKDRIIFVTKEDHETPSSAELVADDPNDPYEEHGLILPNGNINWNCPCLGGMASGPCGEQFKSAFSCFHYSTEEIKGSDCVDQFRAMQECMQKYPDLYPQEDEDEEEEREKKPAEQAEETAPIEATATKEEEGSS
modifications: ATTO 488 (NHS ester) on the N-terminus
notes: not shown: GB1-6X-His, N-terminal, cleaved

How the values were obtained:
Conditions in all cases: both partners purified
[1] = target: B1; assay: MST; AIF allostery mutants titrated (1.8 nM–30 µM) into 100 nM Atto488-CHCHD4 without NADH; 25 mM HEPES pH 7.5, 150 mM NaCl, 0.01% Tween-20, 5 mM TCEP; 25 °C
[2] = target: T1, AIF-W196A (human, UniProt O95831 78-613, W196A); assay: as above
T1 construct: Apoptosis-inducing factor (AIF), human, allostery mutant lacking the inner mitochondrial membrane tether; limits read as those of the wild type, 78-613; source: E. coli Rosetta2(DE3), purified (Ni-NTA, PreScission cleavage, subtractive Ni-NTA, Superdex 200)

[3] = target: T2, AIF-R529A (human, UniProt O95831 78-613, R529A); assay: as above
T2 construct: Apoptosis-inducing factor (AIF), human, allostery mutant lacking the inner mitochondrial membrane tether; limits read as those of the wild type, 78-613; source: E. coli Rosetta2(DE3), purified (Ni-NTA, PreScission cleavage, subtractive Ni-NTA, Superdex 200)

[4] = target: T3, AIF(78-613), wild type (human, UniProt O95831 78-613); assay: MST; wild-type AIF titrated (1.8 nM–30 µM) into 100 nM Atto488-CHCHD4 with 300 µM NADH; 25 mM HEPES pH 7.5, 150 mM NaCl, 0.01% Tween-20, 5 mM TCEP; 25 °C
T3 construct: Apoptosis-inducing factor (AIF), human, residues 78-613, lacking the inner mitochondrial membrane tether; Construct from Brosey et al 2016; also called Apoptosis-inducing factor; AIF + NADH; source: E. coli Rosetta2(DE3), purified (Ni-NTA, PreScission cleavage, subtractive Ni-NTA, Superdex 200)

Kd [1] [µM]	Kd [2] [µM]	Kd [3] [µM]	Kd [4] [µM]	Binder
4	–	–	–	AIF-ΔC-loop (domain or fragment) VGAGAYAYKTMKEDEKRYNERISGLGLTPEQKQKKAALSASEGEEVPQDKAPSHVPFLLIGGGTAAFAAARSIRARDPGARVLIVSEDPELPYMRPPLSKELWFSDDPNVTKTLRFKQWNGKERSIYFQPPSFYVSAQDLPHIENGGVAVLTGKKVVQLDVRDNMVKLNDGSQITYEKCLIATGGTPRSLSAIDRAGAEVKSRTTLFRKIGDFRSLEKISREVKSITIIGGGFLGSELACALGRKARALGTEVIQLFPEKGNMGKILPEYLSNWTMEKVRREGVKVMPNAIVQSVGVSSGKLLIKLKDGRKVETDHIVAAVGLEPNVELAKTGGLEIDSDFGGFRVNAELQARSNIWVAGDAACFYDIKLGRRRVEHHDHAVVSGRLAGENMTGAAKPYWHQSMFWSDLGPDVGYEAIGLVDSSLPTVGVFYGKGVIFYLRDKVVVGIVLWNIFNRMPIARKIIKDGEQHEDLNEVAKLFNIHED
–	2.2	2.5	0.34	B1
